The record followed here is patent US20260049138A1 (Chugai, published 2026).

B1: GLS3000 S27eG one-arm antibody (antibody, human IgG1, kappa, L234A L235A, N297A, name in Kabat numbering)
heavy: QVQLVESGGGVVQPGRSLRLSCAASGFTFSNAWMHWVRQAPGKGLEWVAQIKAKSNNYATYYAESVKGRFTISRDDSKNSLYLQMNSLKTEDTAVYYCRYVHYGAYYGVDAWGQGTTVTVSSASTKGPSVFPLAPSSKSTSGGTAALGCLVKDYFPEPVTVSWNSGALTSGVHTFPAVLQSSGLYSLSSVVTVPSSSLGTQTYICNVNHKPSNTKVDKKVEPKSCDKTHTCPPCPAPEAAGGPSVFLFPPKPKDTLMISRTPEVTCVVVDVSHEDPEVKFNWYVDGVEVHNAKTKPREEQYASTYRVVSVLTVLHQDWLNGKEYKCKVSNKALPAPIEKTISKAKGQPREPQVYTLPPSRCELTKNQVSLSCAVKGFYPSDIAVEWESNGQPENNYKTTPPVLDSDGSFFLVSKLTVDKSRWQQGNVFSCSVMHEALHNHYTQKSLSLSPDYKDDDDK
chain: EPKSSDKTHTCPPCPAPELLGGPSVFLFPPKPKDTLMISRTPEVTCVVVDVSHEDPEVKFNWYVDGVEVHNAKTKPREEQYNSTYRVVSVLTVLHQDWLNGKEYKCKVSNKALPAPIEKTISKAKGQPREPQVCTLPPSRDELTKNQVSLWCLVKGFYPSDIAVEWESNGQPENNYKTTPPVLDSDGSFFLYSKLTVDKSRWQQGNVFSCSVMHEALHNRYTQKSLSLSP
light: DIVMTQSPLSLPVTPGEPASISCRSSQSLVHGNRNTYLHWYQQKPGQAPRLLIYKVSNRFSGVPDRFSGSGSGTDFTLKISRVEAEDVGVYYCGQGTQVPYTFGQGTKLEIKRTVAAPSVFIFPPSDEQLKSGTASVVCLLNNFYPREAKVQWKVDNALQSGNSQESVTEQDSKDSTYSLSSTLTLSKADYEKHKVYACEVTHQGLSSPVTKSFNRGEC
B2: GLS3000 S56L one-arm antibody (antibody, human IgG1, kappa, L234A L235A, N297A, name in Kabat numbering)
heavy: B1 heavy
chain: B1 chain
light: B1 light with G32S, S61L
B3: GLS3000 S27eR one-arm antibody (antibody, human IgG1, kappa, L234A L235A, N297A, name in Kabat numbering)
heavy: B1 heavy
chain: B1 chain
light: B1 light with G32R
B4: GLS3000 S27eV one-arm antibody (antibody, human IgG1, kappa, L234A L235A, N297A, name in Kabat numbering)
heavy: B1 heavy
chain: B1 chain
light: B1 light with G32V
B5: GLS3000 S27eN one-arm antibody (antibody, human IgG1, kappa, L234A L235A, N297A, name in Kabat numbering)
heavy: B1 heavy
chain: B1 chain
light: B1 light with G32N
B6: GLS3000 S56K one-arm antibody (antibody, human IgG1, kappa, L234A L235A, N297A, name in Kabat numbering)
heavy: B1 heavy
chain: B1 chain
light: B1 light with G32S, S61K
B7: GLS3000 S56E one-arm antibody (antibody, human IgG1, kappa, L234A L235A, N297A, name in Kabat numbering)
heavy: B1 heavy
chain: B1 chain
light: B1 light with G32S, S61E
B8: GLS3000 S52Q one-arm antibody (antibody, human IgG1, kappa, L234A L235A, N297A, name in Kabat numbering)
heavy: B1 heavy
chain: B1 chain
light: B1 light with G32S, S57Q
B9: GLS3000 S56H one-arm antibody (antibody, human IgG1, kappa, L234A L235A, N297A, name in Kabat numbering)
heavy: B1 heavy
chain: B1 chain
light: B1 light with G32S, S61H
B10: GLS3000 S27eQ one-arm antibody (antibody, human IgG1, kappa, L234A L235A, N297A, name in Kabat numbering)
heavy: B1 heavy
chain: B1 chain
light: B1 light with G32Q
B11: GLS3000 S27eK one-arm antibody (antibody, human IgG1, kappa, L234A L235A, N297A, name in Kabat numbering)
heavy: B1 heavy
chain: B1 chain
light: B1 light with G32K
B12: GLS3000 S56D one-arm antibody (antibody, human IgG1, kappa, L234A L235A, N297A, name in Kabat numbering)
heavy: B1 heavy
chain: B1 chain
light: B1 light with G32S, S61D
B13: GLS3000 S52D one-arm antibody (antibody, human IgG1, kappa, L234A L235A, N297A, name in Kabat numbering)
heavy: B1 heavy
chain: B1 chain
light: B1 light with G32S, S57D
B14: GLS3000 S56P one-arm antibody (antibody, human IgG1, kappa, L234A L235A, N297A, name in Kabat numbering)
heavy: B1 heavy
chain: B1 chain
light: B1 light with G32S, S61P
B15: GLS3000 S56N one-arm antibody (antibody, human IgG1, kappa, L234A L235A, N297A, name in Kabat numbering)
heavy: B1 heavy
chain: B1 chain
light: B1 light with G32S, S61N
B16: GLS3000 S27eT one-arm antibody (antibody, human IgG1, kappa, L234A L235A, N297A, name in Kabat numbering)
heavy: B1 heavy
chain: B1 chain
light: B1 light with G32T
B17: GLS3000 S27eH one-arm antibody (antibody, human IgG1, kappa, L234A L235A, N297A, name in Kabat numbering)
heavy: B1 heavy
chain: B1 chain
light: B1 light with G32H
B18: GLS3000 S27eY one-arm antibody (antibody, human IgG1, kappa, L234A L235A, N297A, name in Kabat numbering)
heavy: B1 heavy
chain: B1 chain
light: B1 light with G32Y
B19: GLS3000 S56Q one-arm antibody (antibody, human IgG1, kappa, L234A L235A, N297A, name in Kabat numbering)
heavy: B1 heavy
chain: B1 chain
light: B1 light with G32S, S61Q
B20: GLS3000 S56G one-arm antibody (antibody, human IgG1, kappa, L234A L235A, N297A, name in Kabat numbering)
heavy: B1 heavy
chain: B1 chain
light: B1 light with G32S, S61G
B21: GLS3000 S56F one-arm antibody (antibody, human IgG1, kappa, L234A L235A, N297A, name in Kabat numbering)
heavy: B1 heavy
chain: B1 chain
light: B1 light with G32S, S61F
B22: GLS3000 S27eP one-arm antibody (antibody, human IgG1, kappa, L234A L235A, N297A, name in Kabat numbering)
heavy: B1 heavy
chain: B1 chain
light: B1 light with G32P
B23: GLS3000 S27eL one-arm antibody (antibody, human IgG1, kappa, L234A L235A, N297A, name in Kabat numbering)
heavy: B1 heavy
chain: B1 chain
light: B1 light with G32L
B24: GLS3000 S56M one-arm antibody (antibody, human IgG1, kappa, L234A L235A, N297A, name in Kabat numbering)
heavy: B1 heavy
chain: B1 chain
light: B1 light with G32S, S61M
B25: GLS3000 S52Y one-arm antibody (antibody, human IgG1, kappa, L234A L235A, N297A, name in Kabat numbering)
heavy: B1 heavy
chain: B1 chain
light: B1 light with G32S, S57Y
B26: GLS3000 S52A one-arm antibody (antibody, human IgG1, kappa, L234A L235A, N297A, name in Kabat numbering)
heavy: B1 heavy
chain: B1 chain
light: B1 light with G32S, S57A
B27: GLS3000 S52P one-arm antibody (antibody, human IgG1, kappa, L234A L235A, N297A, name in Kabat numbering)
heavy: B1 heavy
chain: B1 chain
light: B1 light with G32S, S57P
B28: GLS3000 S27eM one-arm antibody (antibody, human IgG1, kappa, L234A L235A, N297A, name in Kabat numbering)
heavy: B1 heavy
chain: B1 chain
light: B1 light with G32M
B29: GLS3000 S56I one-arm antibody (antibody, human IgG1, kappa, L234A L235A, N297A, name in Kabat numbering)
heavy: B1 heavy
chain: B1 chain
light: B1 light with G32S, S61I
B30: GLS3000 S27eW one-arm antibody (antibody, human IgG1, kappa, L234A L235A, N297A, name in Kabat numbering)
heavy: B1 heavy
chain: B1 chain
light: B1 light with G32W
B31: GLS3000 S27eI one-arm antibody (antibody, human IgG1, kappa, L234A L235A, N297A, name in Kabat numbering)
heavy: B1 heavy
chain: B1 chain
light: B1 light with G32I
B32: GLS3000 S56A one-arm antibody (antibody, human IgG1, kappa, L234A L235A, N297A, name in Kabat numbering)
heavy: B1 heavy
chain: B1 chain
light: B1 light with G32S, S61A

Where a chain is given by its changes, count along the chain named. Numbers in names are those of the source.

The target of this assay is T1, CD3ε homodimer protein (human, UniProt P07766 23-126, limits assumed).
T1 construct: also called CD3 (CD3ε)
T1 sequence (P07766 23-126 limits assumed): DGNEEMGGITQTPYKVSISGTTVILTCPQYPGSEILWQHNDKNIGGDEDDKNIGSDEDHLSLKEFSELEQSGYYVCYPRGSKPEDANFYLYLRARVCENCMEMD
As to the kind of experiment: SPR Biacore T200, CD3ε homodimer on chip.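 Also: Light-chain single-residue variant antibodies injected over amine-coupled CD3ε homodimer on a CM4 chip at 25 °C, bound amount divided by that of the GLS3000-containing antibody.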
With B1, the “ratio of amount bound vs unaltered GLS3000” value (“ratio of amount bound” below) came to 1.04.

As to B2, the “ratio of amount bound” value came to 1.02.

B3: the “ratio of amount bound” value worked out at 1.58.

As for B4, the “ratio of amount bound” value stood at 1.08.

Take B5: the “ratio of amount bound” value was 1.16.

With B6, the “ratio of amount bound” value was 1.46.

On to B7, for which the “ratio of amount bound” value came to 0.71.

As for B8, the “ratio of amount bound” value was 1.05.

For the molecule B9, the “ratio of amount bound” value is 1.05.

For the molecule B10, the “ratio of amount bound” value worked out at 1.1.

Take B11: the “ratio of amount bound” value came to 1.59.

Consider B12, for which the “ratio of amount bound” value worked out at 0.77.

B13: the “ratio of amount bound” value worked out at 0.63.

For B14, the “ratio of amount bound” value stood at 0.95.

On to B15, for which the “ratio of amount bound” value worked out at 0.92.

For B16, the “ratio of amount bound” value stood at 0.97.

As for B17, the “ratio of amount bound” value was determined as 1.23.

Consider B18, for which the “ratio of amount bound” value was 1.2.

On to B19, for which the “ratio of amount bound” value amounted to 1.04.

With B20, the “ratio of amount bound” value was 0.92.

B21: the “ratio of amount bound” value turned out to be 1.32.

Regarding B22, the “ratio of amount bound” value is 1.26.

Regarding B23, the “ratio of amount bound” value turned out to be 1.17.

Regarding B24, the “ratio of amount bound” value is 1.05.

B25: the “ratio of amount bound” value stood at 1.12.

Regarding B26, the “ratio of amount bound” value came to 0.93.

B27: the “ratio of amount bound” value is 0.33.

Consider B28, for which the “ratio of amount bound” value was found to be 1.23.

Turning to B29, the “ratio of amount bound” value stood at 0.99.

In the case of B30, the “ratio of amount bound” value was determined as 1.55.

Regarding B31, the “ratio of amount bound” value worked out at 1.07.

On to B32, for which the “ratio of amount bound” value was determined as 1.16.
